This series in a line: yeast display, Sf9 membrane polyspecificity reagent, FACS + sequencing; frameworks hold sequencing errors. The method in brief: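 A synthetic nanobody library was expressed on Saccharomyces cerevisiae BJ5465 by galactose induction for 36–48 hours. The library was stained for 1 hour at 4 °C with 10% biotinylated, detergent-solubilized Sf9 membrane reagent and enriched with streptavidin microbeads before FACS. Low and high (top ~1%) gates were set on anti-HA fluorescence for expression and streptavidin fluorescence for reagent binding, and each polyreactivity label reflects the gate of origin.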
With “QVQLVESGGGLVQAGGSLRLSCAASGYIFLRNSLGWYRQAPGKERELVAAIRRTGGSTYYADSVKGRFTISRDNAKNTVYLQMNSLKPEDTAVYYCAKRSYTGYEYWGQGTQVTVSS”, the “polyreactivity (PSR sort gate)” value is reported as “low polyreactivity”.

As to “QVQLVESGGGLVQAGGSLRLSCAASGYIFNPNAMGWYRQAPGKERELVAAITWSGGNTYYADSVKGRFTISRDNAKNTVYLQMNSLKPEDTAVFYCNAEYRWPYWGQWYFKGYDYWGQGTQVTVSS”, the “polyreactivity (PSR sort gate)” value is reported as “low polyreactivity”.

On to “QVQLVESGGGLVQAGGSLRLSCAASGYIFNYAIGWYRQAPRKESELVAAITWDGSSTNYADSVKGRFTISRDNAKNTVYLQMKSLKPEDTAVYYCNARGRWTFNGFWFTYNYWGQGTQVTVSS”, for which the “polyreactivity (PSR sort gate)” value is given as “high polyreactivity”.

Turning to “QVQLVESGGGLVQAGGSLRLSCAASGYIFPDYPMGWYRPATGKERELVAAFTSSGGRTYYADSVKGRFTISRDNAKNTVYLQMNSLKPEDTAVYYCAAVSVLKKTFDYWGQGTQVTVSS”, the “polyreactivity (PSR sort gate)” value is “high polyreactivity”.

For “QVQLVESGGGLVQAGGSLRLSCAASGYIFPPYAMGWYRQAPGKERELVATMTGIGGSTDYADSVKGRFTISRDNAKNTVYLQMNSLKPEDTAVYYCAARRDGYGTHYDYWGQGTQVTVSS”, the “polyreactivity (PSR sort gate)” value is listed as “low polyreactivity”.

Take “QVQLVESGGGLVQAGGSLRLSCAASGYIFPYYPMGWYRQAPGKQRELVAAISRSGGGTYYADSVKGRFTISRDIANNTVYLQMNSLKPEDTALYYCNRRSGHVHEYDYWGQGTQVTVSS”: the “polyreactivity (PSR sort gate)” value was “low polyreactivity”.

Regarding “QVQLVESGGGLVQAGGSLRLSCAASGYIFQDYAMGWYRPAPGKERELVAAITSGGSTYYADSVKGRFTISRDNAKNTVYLQMNSLKPEDTAVYYCAAVGYYSVPGYSSRRYYYWGQGTQVTVSS”, the “polyreactivity (PSR sort gate)” value is reported as “high polyreactivity”.

As to “QVQLVESGGGLVQAGGSLRLSCAASGYIFQRYTMGWYRQAPGKERELVAAITRSGGRTYYADSVKGRFTISRDNAKNTVYLQMNSLKPEDTAVYYCAVDYRTRGDYWGQGTQVTVSS”, the “polyreactivity (PSR sort gate)” value is given as “high polyreactivity”.

As for “QVQLVESGGGLVQAGGSLRLSCAASGYIFQTYAMGWYRQAPGKEREFVAAITSGAGRTSYADSVKGRFTISRDNAKNTVYLQMNSLKPEDTAVYYCAARWRYQLSGSRLSYGKYDYWGQGTQVTVSS”, the “polyreactivity (PSR sort gate)” value is reported as “high polyreactivity”.

For “QVQLVESGGGLVQAGGSLRLSCAASGYIFQYYAKGWYRQAPGKERELVAAITGGGSTKYADSVKGRFTISRDNAKHTVYLQMNSLKPEDTAVYYCAKRYPSWFNYWGQGTQVTVSS”, the “polyreactivity (PSR sort gate)” value was “high polyreactivity”.

In the case of “QVQLVESGGGLVQAGGSLRLSCAASGYIFRFNAMGWYRQAPGKERELVAAISRSGGRTYYADSVKGRFTISRDNAKNTVYLQMNSLKPEDTAVYYCAAVRYKGGGNQPYGYWGQGTQVTVSS”, the “polyreactivity (PSR sort gate)” value is “high polyreactivity”.

As to “QVQLVESGGGLVQAGGSLRLSCAASGYIFRFNAMGWYRQAPGKERELVAVITSGARTYYADSVKGRFTISRDNAKNTFYLLMNSLKPEDTAVYYCNAGARRYLYDYWGQGTQVTVSS”, the “polyreactivity (PSR sort gate)” value is listed as “low polyreactivity”.

Turning to “QVQLVESGGGLVQAGGSLRLSCAASGYIFRGYVMGWYRQAPGKERELVAAITSRGDSTYYADSVKGRFTISRDNAKNTVYLQMNSLKPEDTAVYYCNAVHYYVEYDYWGQGTQVTVSS”, the “polyreactivity (PSR sort gate)” value was “high polyreactivity”.

In the case of “QVQLVESGGGLVQAGGSLRLSCAASGYIFRRYAMGWYRQAPGKERELVAAISFSGGSTYYADSVKGRFTISRDNAKNTVYLQMNSLKPEDTAVYYCAALSLLRYDYWGQGTQVTVSS”, the “polyreactivity (PSR sort gate)” value is reported as “high polyreactivity”.

On to “QVQLVESGGGLVQAGGSLRLSCAASGYIFRSYVMGWYRQAPGKERELVAAISVSGGRTYYADSVKGRFTMSRDNAKNTVYLQMNSLIPEDTAVYYCAAYLGRRGQEMDYWGQGTQVTVSS”, for which the “polyreactivity (PSR sort gate)” value is on record as “high polyreactivity”.

Consider “QVQLVESGGGLVQAGGSLRLSCAASGYIFRYYAMGWYREAPGKERELVARINSGGSTYADSVKGRFTISRDNAKNTVYLQMNSLKPEDTAVYYCAADLAKYRSKLGYWGQVTQVTVSS”, for which the “polyreactivity (PSR sort gate)” value is listed as “high polyreactivity”.

With “QVQLVESGGGLVQAGGSLRLSCAASGYIFRYYAMGWYRQAPGKERELVAAISRSGGNTYYADSVKGRFTISRDNAKNTVYLQMNSLKPEDTAVYYCAVVLSTYSYADYDYWGQGTQVTVSS”, the “polyreactivity (PSR sort gate)” value was “high polyreactivity”.

As for “QVQLVESGGGLVQAGGSLRLSCAASGYIFSDNTMGWYRQAPGKERELVAVITSGTSTSYADSVKGRFTISRDNAKNTVYLQMNSLKPEDTAVYYAARTGQYKTYGEYDYWGQGTQVTVSS”, the “polyreactivity (PSR sort gate)” value is on record as “low polyreactivity”.

On to “QVQLVESGGGLVQAGGSLRLSCAASGYIFSYNAMGWYRQAPGKERELVAAMTASGGGTYYADSVKGRFTISRDNAKNTVYLQMNSLKPEDTAVYYCAADFNDHYYWYGQDYDYWGQGTQVTVSS”, for which the “polyreactivity (PSR sort gate)” value is listed as “low polyreactivity”.

As to “QVQLVESGGGLVQAGGSLRLSCAASGYIFSYYAMGWYRQAPGKERELVAAINRSGGRTYYADSVKGRFTISRDNAKNTVYLQMNSLKPEDTAVYYCAADQLSDEYDYWGQGTQVTVSS”, the “polyreactivity (PSR sort gate)” value is given as “high polyreactivity”.

“QVQLVESGGGLVQAGGSLRLSCAASGYIFSYYTMGLYRQAPGKERELVASNRWGGGRTYYADSVKGRFTISRDNAKNTVYLQMNSLKPEDTAVYYCNVKSSRLLDVGRMEYWGQGTQVTVSS”: the “polyreactivity (PSR sort gate)” value is reported as “high polyreactivity”.

Turning to “QVQLVESGGGLVQAGGSLRLSCAASGYIFSYYTMGWYRQAPGKERELVAAISYSGGSTDYADSVKGRFTISRDNAKNTVYLQMNSLKPEDTAVYYCNADYSFWAKPYWEYGYDYWGQGTQVTVSS”, the “polyreactivity (PSR sort gate)” value was “low polyreactivity”.

On to “QVQLVESGGGLVQAGGSLRLSCAASGYIFVIYAMGWYRQAPGKERELVAAISWGGGSTYYADSVKGRFTISRDNAKNTVYLQMNSLKPEATAVYYCAARGWVVGRISVPGEYWGQGTQVTVSS”, for which the “polyreactivity (PSR sort gate)” value was “high polyreactivity”.

With “QVQLVESGGGLVQAGGSLRLSCAASGYIFVPYALGWYRQAPGKERELVASITGGGSTNYADSVKGRFTISRDNAKNTVYLQMNSLKPEDTAVYYCAAVLGGGEKGGRNRRFDSWGQGTQVTVSS”, the “polyreactivity (PSR sort gate)” value was “low polyreactivity”.

As for “QVQLVESGGGLVQAGGSLRLSCAASGYIFVSYDMGWYRQAPGKERELVAAISWRGGSTYYADSVKGRFTISRDNAMNTVYLQMNSLKPEDTAVYYCAVDDWLDWLFADFGYWGQGTQVTVSS”, the “polyreactivity (PSR sort gate)” value is “low polyreactivity”.

Consider “QVQLVESGGGLVQAGGSLRLSCAASGYIFVYNSMGWYRPAPGKERELVAVINYSGSSTYYADSVKGRFPISRDNAKNTVYLQMNSLKPEDTAVYYCNALRRESLEDEYWGQGTQVTVSS”, for which the “polyreactivity (PSR sort gate)” value is on record as “high polyreactivity”.

For the sequence “QVQLVESGGGLVQAGGSLRLSCAASGYIFWENAMGWYRQAPGKERELVAAITVSGGGTYYADSVKGRFTISRDNAKNTVYLQMNSLKPEDTAVYYCAADEDNPWLWFYYWGQGTQVTVSS”, the “polyreactivity (PSR sort gate)” value was “low polyreactivity”.

Turning to “QVQLVESGGGLVQAGGSLRLSCAASGYIFWSNTMGWYRQAPGKERELVAAISQSTASTYYADSVKGRFTISRDNAKNTVYLQMNSLKPEDTAVYYCAADDYIDGDDYWGQGTQVTVSS”, the “polyreactivity (PSR sort gate)” value is on record as “low polyreactivity”.

For “QVQLVESGGGLVQAGGSLRLSCAASGYIFYAYAMAWYRHAPGKESELVAAITDNGVSTFYADSVKGRFTISRDNAKNTVYLHMNSLIPEDTAVYYCATSSTHSRGDEYWGQGTQVAVSS”, the “polyreactivity (PSR sort gate)” value was “low polyreactivity”.

As for “QVQLVESGGGLVQAGGSLRLSCAASGYIFYDNAMGWYRQAPGKERELVAAISRSGSRTRYADSVKGRFTISRDNAKNTVYLQMNSLKPEDTAVYYCNTRYAKYYYWGQGTQVTVSS”, the “polyreactivity (PSR sort gate)” value is listed as “high polyreactivity”.

Take “QVQLVESGGGLVQAGGSLRLSCAASGYIFYFNAMGRYRQAPGKERELVAVISDRDDSTYYADSVKGRFTISRDNAKNTVYLQMNSLKPEDTAVYYCAADGDTYVDDPYDYWGQGTQVTVSS”: the “polyreactivity (PSR sort gate)” value is “low polyreactivity”.

For the sequence “QVQLVESGGGLVQAGGSLRLSCAASGYIFYFYAMGWYRQAPGKERELVAAISSSGGSTRYADSVKGRFTISRDNAKNTVYLQMNSLKPEDTAVYYCAASHWSGAAWYYYWGQGTQVTVSS”, the “polyreactivity (PSR sort gate)” value was “high polyreactivity”.

Consider “QVQLVESGGGLVQAGGSLRLSCAASGYIFYGYAMGWYRQAPWKESEWVAAITVRGGSTYYADSVKGRFTISRDKAKNTVYLQKNSQKPEDTAVYYCAAAPQFTFGVGYWGQVTQVTVSS”, for which the “polyreactivity (PSR sort gate)” value was “low polyreactivity”.

In the case of “QVQLVESGGGLVQAGGSLRLSCAASGYIFYRNAMGWYRQAPGKEREFVAAISSSGVSTYYADSVKGRFTISRDTAKNTVYLQMNSLKPEDTAVYYCNTGYIFSSFYSSKYGYWGQGTQVTVSS”, the “polyreactivity (PSR sort gate)” value is on record as “low polyreactivity”.

Consider “QVQLVESGGGLVQAGGSLRLSCAASGYIFYTYAMGWYRQAPGKERELVASIDSGGSTNYADSVKGRFTISRDNAKNTVYLQMNSLKPEDTAVYYCAADVIVRVYYYYYVLMDYWGQGTQVTVSS”, for which the “polyreactivity (PSR sort gate)” value was “low polyreactivity”.

On to “QVQLVESGGGLVQAGGSLRLSCAASGYIIARNAMGWYRQAPGKERELVAAIRSSGGSTYYADSVKGRFTISRDNAKNTVYLQMNSLKPEDTAVYYCAARILKRPKLYDYWGQGTQVTVSS”, for which the “polyreactivity (PSR sort gate)” value is given as “high polyreactivity”.

Consider “QVQLVESGGGLVQAGGSLRLSCAASGYIIRRYSMVWYIQAPGKESEWVAVISSRGGSTYYADSVKGRFTISRDYAKNTVYLQMNSLKPEDTPVYYCAARSGSRATVLSDYWGQGTQVTVSS”, for which the “polyreactivity (PSR sort gate)” value is given as “high polyreactivity”.

Take “QVQLVESGGGLVQAGGSLRLSCAASGYILDVYAMGWYRQAHGKEWELVAVITWRTDSTYYADSVKGRFTISRDNAKNTVYLQMNSLKPEDTAVYYCAKVLRLSKYRYYYWGQGTQVTVSS”: the “polyreactivity (PSR sort gate)” value is on record as “high polyreactivity”.

Take “QVQLVESGGGLVQAGGSLRLSCAASGYILGRYAMGWYRQAPGKERELVAAITSGGSTYYADSVKGRFTISRDNAKNTVYLQMNSLKPEDTAVYYCNAFFATGVDYWGQGTQVTVSS”: the “polyreactivity (PSR sort gate)” value is given as “high polyreactivity”.

Take “QVQLVESGGGLVQAGGSLRLSCAASGYILQINAMGWYRQAPGKERELVSAISISGGNTYYADSVKGRFTISRDNAKNNVYLQMNSLKPEDTAVYYCAAYRYYSYLVRYGLLLAYYYWGQGTQVTVSS”: the “polyreactivity (PSR sort gate)” value is recorded as “low polyreactivity”.

Take “QVQLVESGGGLVQAGGSLRLSCAASGYILTHYAMGWYRQAPGKERELVAAITRVGNTNYADSVKGRFTISRDNAKNTVYLQMNSLKPEDTAVYYCAVTYNGDSSWPGDYWGQGTQVTVSS”: the “polyreactivity (PSR sort gate)” value is recorded as “low polyreactivity”.

The values above are taken from the nanobody polyreactivity screen of Harvey et al. (2022).
